Test results from the supplement of paper PMC9112550, “Optimization of the antimicrobial peptide Bac7 by deep mutational scanning” (BMC Biology, 2022).

Each sequence was assayed on Escherichia coli TOP10 (assay: shrunken log2 fold change of peptide-encoding DNA abundance (4.5 h post-induction vs induction); higher = less antimicrobial activity (less host growth inhibition)). Conditions: time post-induction: 4.5 h; library: site-saturation at positions 5, 18, 19, 20.
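Note: peptides expressed intracellularly from a pBAD plasmid library in pooled LB shake-flask culture, induced with 0.3% L-arabinose, DNA abundance read by NGS, three biological replicates, DESeq2 with apeglm shrinkage.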

Which “shrunken log2 fold change” value does the source give for RRIRTRPPRLPRPRPRPYFIPRP here?
The value was -0.872.

For RRIRYRPPRLPRPRPRPAHEPRP, which “shrunken log2 fold change” value is on record?
The value was 0.241.

With RRIRQRPPRLPRPRPRPKQKPRP as the sequence, how does the “shrunken log2 fold change” value read?
Its value is -0.0585.

Which “shrunken log2 fold change” value does the source give for RRIRYRPPRLPRPRPRPHCIPRP here?
Its value is -0.0129.

Which “shrunken log2 fold change” value does the source give for RRIRCRPPRLPRPRPRPEFAPRP here?
Its value is 0.375.

With RRIRTRPPRLPRPRPRPYIHPRP as the sequence, how does the “shrunken log2 fold change” value read?
The value was -0.779.

How did the “shrunken log2 fold change” value turn out when RRIRDRPPRLPRPRPRPWPFPRP was run?
Its value is 0.0405.

For RRIRIRPPRLPRPRPRPDEGPRP, which “shrunken log2 fold change” value is on record?
The value was -0.22.

RRIRMRPPRLPRPRPRPGEIPRP was tested. Which “shrunken log2 fold change” value did it give?
The value was 0.995.

How did the “shrunken log2 fold change” value turn out when RRIRCRPPRLPRPRPRPHWEPRP was run?
Its value is -0.132.

How did the “shrunken log2 fold change” value turn out when RRIRGRPPRLPRPRPRPASAPRP was run?
Its value is 0.818.

How did the “shrunken log2 fold change” value turn out when RRIRHRPPRLPRPRPRPYFVPRP was run?
Its value is -0.84.

How did the “shrunken log2 fold change” value turn out when RRIRWRPPRLPRPRPRPWMQPRP was run?
The value was -0.147.

RRIRYRPPRLPRPRPRPWNPPRP was tested. Which “shrunken log2 fold change” value did it give?
Its value is -0.00498.

For RRIRKRPPRLPRPRPRPREQPRP, which “shrunken log2 fold change” value is on record?
The value was 0.609.

RRIRIRPPRLPRPRPRPWQHPRP was tested. Which “shrunken log2 fold change” value did it give?
The value was 0.0851.

With RRIRMRPPRLPRPRPRPFAAPRP as the sequence, how does the “shrunken log2 fold change” value read?
The value was 0.789.

Which “shrunken log2 fold change” value does the source give for RRIRYRPPRLPRPRPRPGPKPRP here?
The value was 0.185.

How did the “shrunken log2 fold change” value turn out when RRIRVRPPRLPRPRPRPPCIPRP was run?
Its value is -0.00689.

Which “shrunken log2 fold change” value does the source give for RRIRFRPPRLPRPRPRPQRAPRP here?
Its value is 0.462.

How did the “shrunken log2 fold change” value turn out when RRIRTRPPRLPRPRPRPAVFPRP was run?
The value was 0.271.

How did the “shrunken log2 fold change” value turn out when RRIRERPPRLPRPRPRPIWKPRP was run?
Its value is -0.644.

Which “shrunken log2 fold change” value does the source give for RRIRPRPPRLPRPRPRPVQCPRP here?
Its value is -0.0846.

With RRIRVRPPRLPRPRPRPVQWPRP as the sequence, how does the “shrunken log2 fold change” value read?
The value was -0.0327.

For RRIRMRPPRLPRPRPRPADCPRP, which “shrunken log2 fold change” value is on record?
The value was 0.918.

RRIRQRPPRLPRPRPRPWIDPRP was tested. Which “shrunken log2 fold change” value did it give?
The value was -0.0353.

With RRIRDRPPRLPRPRPRPSMPPRP as the sequence, how does the “shrunken log2 fold change” value read?
The value was -0.164.

With RRIRMRPPRLPRPRPRPMEQPRP as the sequence, how does the “shrunken log2 fold change” value read?
The value was 1.29.

RRIRFRPPRLPRPRPRPFAPPRP was tested. Which “shrunken log2 fold change” value did it give?
The value was 0.0349.

With RRIRCRPPRLPRPRPRPREEPRP as the sequence, how does the “shrunken log2 fold change” value read?
Its value is 1.43.

With RRIRERPPRLPRPRPRPIVWPRP as the sequence, how does the “shrunken log2 fold change” value read?
The value was 0.0693.

Which “shrunken log2 fold change” value does the source give for RRIRDRPPRLPRPRPRPQNRPRP here?
The value was -0.28.

For RRIRDRPPRLPRPRPRPNWDPRP, which “shrunken log2 fold change” value is on record?
Its value is 0.0503.

Which “shrunken log2 fold change” value does the source give for RRIRQRPPRLPRPRPRPLCPPRP here?
The value was -0.334.

For RRIRARPPRLPRPRPRPIPYPRP, which “shrunken log2 fold change” value is on record?
Its value is -0.0777.

For RRIRVRPPRLPRPRPRPDNEPRP, which “shrunken log2 fold change” value is on record?
The value was -0.185.

How did the “shrunken log2 fold change” value turn out when RRIRHRPPRLPRPRPRPHWYPRP was run?
The value was -0.347.

For RRIRRRPPRLPRPRPRPWMVPRP, which “shrunken log2 fold change” value is on record?
The value was -0.151.

For RRIRARPPRLPRPRPRPCALPRP, which “shrunken log2 fold change” value is on record?
Its value is 0.00197.

With RRIRVRPPRLPRPRPRPAPGPRP as the sequence, how does the “shrunken log2 fold change” value read?
The value was 0.472.

With RRIRFRPPRLPRPRPRPFIDPRP as the sequence, how does the “shrunken log2 fold change” value read?
The value was -0.389.

For RRIRCRPPRLPRPRPRPFTFPRP, which “shrunken log2 fold change” value is on record?
Its value is -0.351.

RRIRFRPPRLPRPRPRPGQMPRP was tested. Which “shrunken log2 fold change” value did it give?
Its value is 0.172.

For RRIRARPPRLPRPRPRPLMYPRP, which “shrunken log2 fold change” value is on record?
The value was -0.165.

With RRIRIRPPRLPRPRPRPIVPPRP as the sequence, how does the “shrunken log2 fold change” value read?
Its value is -0.407.

With RRIRWRPPRLPRPRPRPGQHPRP as the sequence, how does the “shrunken log2 fold change” value read?
The value was -0.172.

With RRIRPRPPRLPRPRPRPANKPRP as the sequence, how does the “shrunken log2 fold change” value read?
Its value is -0.267.

Which “shrunken log2 fold change” value does the source give for RRIRCRPPRLPRPRPRPVRKPRP here?
The value was 0.0744.

How did the “shrunken log2 fold change” value turn out when RRIRWRPPRLPRPRPRPWDKPRP was run?
Its value is -0.0732.

For RRIRERPPRLPRPRPRPTIVPRP, which “shrunken log2 fold change” value is on record?
The value was 0.03.

How did the “shrunken log2 fold change” value turn out when RRIRGRPPRLPRPRPRPIWSPRP was run?
Its value is 0.15.

RRIRERPPRLPRPRPRPVYAPRP was tested. Which “shrunken log2 fold change” value did it give?
The value was -0.288.

RRIRARPPRLPRPRPRPMAKPRP was tested. Which “shrunken log2 fold change” value did it give?
The value was 0.216.

Which “shrunken log2 fold change” value does the source give for RRIRRRPPRLPRPRPRPAVDPRP here?
The value was 0.204.

For RRIRKRPPRLPRPRPRPDQTPRP, which “shrunken log2 fold change” value is on record?
Its value is -0.0185.

RRIRHRPPRLPRPRPRPPYFPRP was tested. Which “shrunken log2 fold change” value did it give?
The value was -0.366.

For RRIRKRPPRLPRPRPRPMMEPRP, which “shrunken log2 fold change” value is on record?
Its value is -0.00277.

With RRIRCRPPRLPRPRPRPPRTPRP as the sequence, how does the “shrunken log2 fold change” value read?
Its value is 0.818.

For RRIRLRPPRLPRPRPRPCGVPRP, which “shrunken log2 fold change” value is on record?
The value was -0.339.

For RRIRMRPPRLPRPRPRPNSYPRP, which “shrunken log2 fold change” value is on record?
Its value is -0.0962.

Which “shrunken log2 fold change” value does the source give for RRIRLRPPRLPRPRPRPKNMPRP here?
The value was -0.448.

With RRIRKRPPRLPRPRPRPFCCPRP as the sequence, how does the “shrunken log2 fold change” value read?
The value was 0.27.

For RRIRHRPPRLPRPRPRPNPSPRP, which “shrunken log2 fold change” value is on record?
Its value is -0.0145.

RRIRKRPPRLPRPRPRPASLPRP was tested. Which “shrunken log2 fold change” value did it give?
Its value is -0.23.

Which “shrunken log2 fold change” value does the source give for RRIRKRPPRLPRPRPRPQQDPRP here?
Its value is 0.179.

RRIRNRPPRLPRPRPRPDSAPRP was tested. Which “shrunken log2 fold change” value did it give?
The value was -0.126.

How did the “shrunken log2 fold change” value turn out when RRIRGRPPRLPRPRPRPRMFPRP was run?
The value was 0.837.

How did the “shrunken log2 fold change” value turn out when RRIRLRPPRLPRPRPRPVVTPRP was run?
Its value is -0.0571.

With RRIRPRPPRLPRPRPRPVEDPRP as the sequence, how does the “shrunken log2 fold change” value read?
Its value is 0.0885.

With RRIRGRPPRLPRPRPRPKINPRP as the sequence, how does the “shrunken log2 fold change” value read?
Its value is 0.426.

Which “shrunken log2 fold change” value does the source give for RRIRRRPPRLPRPRPRPFISPRP here?
Its value is 0.0236.

How did the “shrunken log2 fold change” value turn out when RRIRNRPPRLPRPRPRPLNGPRP was run?
Its value is -0.0206.

RRIRMRPPRLPRPRPRPCYKPRP was tested. Which “shrunken log2 fold change” value did it give?
The value was -0.145.

With RRIRSRPPRLPRPRPRPHQIPRP as the sequence, how does the “shrunken log2 fold change” value read?
The value was 0.0975.

RRIRGRPPRLPRPRPRPMQDPRP was tested. Which “shrunken log2 fold change” value did it give?
The value was 0.108.

Which “shrunken log2 fold change” value does the source give for RRIRFRPPRLPRPRPRPQDWPRP here?
Its value is -0.12.

Which “shrunken log2 fold change” value does the source give for RRIRVRPPRLPRPRPRPSHHPRP here?
Its value is -0.448.

For RRIRRRPPRLPRPRPRPRALPRP, which “shrunken log2 fold change” value is on record?
The value was 0.482.

For RRIRYRPPRLPRPRPRPTRFPRP, which “shrunken log2 fold change” value is on record?
The value was 0.0879.

For RRIRDRPPRLPRPRPRPRIGPRP, which “shrunken log2 fold change” value is on record?
Its value is -0.00724.

With RRIRHRPPRLPRPRPRPAHTPRP as the sequence, how does the “shrunken log2 fold change” value read?
Its value is -0.199.

How did the “shrunken log2 fold change” value turn out when RRIRIRPPRLPRPRPRPKCQPRP was run?
Its value is -0.00871.

How did the “shrunken log2 fold change” value turn out when RRIRWRPPRLPRPRPRPDALPRP was run?
The value was 0.63.

For RRIRERPPRLPRPRPRPRDCPRP, which “shrunken log2 fold change” value is on record?
Its value is 0.112.

How did the “shrunken log2 fold change” value turn out when RRIRCRPPRLPRPRPRPEGEPRP was run?
Its value is 3.03.

RRIRWRPPRLPRPRPRPTRKPRP was tested. Which “shrunken log2 fold change” value did it give?
The value was -0.0294.

Which “shrunken log2 fold change” value does the source give for RRIRPRPPRLPRPRPRPVRGPRP here?
Its value is 0.898.

Which “shrunken log2 fold change” value does the source give for RRIRVRPPRLPRPRPRPRGMPRP here?
The value was 0.274.

For RRIRGRPPRLPRPRPRPEYQPRP, which “shrunken log2 fold change” value is on record?
The value was 0.416.

For RRIRLRPPRLPRPRPRPIKPPRP, which “shrunken log2 fold change” value is on record?
The value was 0.0261.

RRIRTRPPRLPRPRPRPCFIPRP was tested. Which “shrunken log2 fold change” value did it give?
The value was -1.05.

For RRIRIRPPRLPRPRPRPEIYPRP, which “shrunken log2 fold change” value is on record?
The value was -4.67e-05.

RRIRERPPRLPRPRPRPKPIPRP was tested. Which “shrunken log2 fold change” value did it give?
The value was -0.128.

RRIRYRPPRLPRPRPRPNPVPRP was tested. Which “shrunken log2 fold change” value did it give?
The value was 0.000723.

For RRIRYRPPRLPRPRPRPVKDPRP, which “shrunken log2 fold change” value is on record?
Its value is -0.0122.

RRIRERPPRLPRPRPRPCQWPRP was tested. Which “shrunken log2 fold change” value did it give?
The value was -0.017.

Which “shrunken log2 fold change” value does the source give for RRIRPRPPRLPRPRPRPWKEPRP here?
The value was -0.164.

RRIRNRPPRLPRPRPRPTYRPRP was tested. Which “shrunken log2 fold change” value did it give?
The value was -0.0805.

For RRIRDRPPRLPRPRPRPAHLPRP, which “shrunken log2 fold change” value is on record?
Its value is 0.0723.

Which “shrunken log2 fold change” value does the source give for RRIRIRPPRLPRPRPRPKGTPRP here?
The value was 0.0146.

With RRIRKRPPRLPRPRPRPACPPRP as the sequence, how does the “shrunken log2 fold change” value read?
The value was 0.664.

RRIRYRPPRLPRPRPRPEPNPRP was tested. Which “shrunken log2 fold change” value did it give?
The value was -0.0357.

Which “shrunken log2 fold change” value does the source give for RRIRPRPPRLPRPRPRPLEEPRP here?
The value was 0.215.

With RRIRIRPPRLPRPRPRPGIWPRP as the sequence, how does the “shrunken log2 fold change” value read?
Its value is -0.015.

How did the “shrunken log2 fold change” value turn out when RRIRWRPPRLPRPRPRPHHSPRP was run?
Its value is -0.667.

With RRIRFRPPRLPRPRPRPEVQPRP as the sequence, how does the “shrunken log2 fold change” value read?
The value was 0.00737.

With RRIRNRPPRLPRPRPRPAHCPRP as the sequence, how does the “shrunken log2 fold change” value read?
Its value is -0.424.

RRIRHRPPRLPRPRPRPPRMPRP was tested. Which “shrunken log2 fold change” value did it give?
Its value is 0.284.

With RRIRQRPPRLPRPRPRPLWHPRP as the sequence, how does the “shrunken log2 fold change” value read?
The value was -0.107.
